{"source": "paper PMC5023487", "about": "(Traffic (Copenhagen, Denmark), 2016)", "proteins": {"B1": {"name": "Recombinant His6-Sec18p (enzyme, S. cerevisiae, UniProt P18759 1-758, looked up)", "chain": "MFKIPGFGKAAANHTPPDMTNMDTRTRHLKVSNCPNNSYALANVAAVSPNDFPNNIYIIIDNLFVFTTRHSNDIPPGTIGFNGNQRTWGGWSLNQDVQAKAFDLFKYSGKQSYLGSIDIDISFRARGKAVSTVFDQDELAKQFVRCYESQIFSPTQYLIMEFQGHFFDLKIRNVQAIDLGDIEPTSAVATGIETKGILTKQTQINFFKGRDGLVNLKSSNSLRPRSNAVIRPDFKFEDLGVGGLDKEFTKIFRRAFASRIFPPSVIEKLGISHVKGLLLYGPPGTGKTLIARKIGTMLNAKEPKIVNGPEILSKYVGSSEENIRNLFKDAEAEYRAKGEESSLHIIIFDELDSVFKQRGSRGDGTGVGDNVVNQLLAKMDGVDQLNNILVIGMTNRKDLIDSALLRPGRFEVQVEIHLPDEKGRLQIFDIQTKKMRENNMMSDDVNLAELAALTKNFSGAEIEGLVKSASSFAINKTVNIGKGATKLNTKDIAKLKVTREDFLNALNDVTPAFGISEEDLKTCVEGGMMLYSERVNSILKNGARYVRQVRESDKSRLVSLLIHGPAGSGKTALAAEIALKSGFPFIRLISPNELSGMSESAKIAYIDNTFRDAYKSPLNILVIDSLETLVDWVPIGPRFSNNILQMLKVALKRKPPQDRRLLIMTTTSAYSVLQQMDILSCFDNEIAVPNMTNLDELNNVMIESNFLDDAGRVKVINELSRSCPNFNVGIKKTLTNIETARHDEDPVNELVELMTQSA"}}, "target": "the molecule itself", "experiment": "SEC", "note": "Where “and” joins values, the source holds several entries; their conditions need not be identical. Equal entries are not always repeated."}
{"protein": "B1", "values": [{"measurement": "stoichiometry N", "result": "6 and 2"}]}
